Assay results: PMC4672880

Target: GCNt stabilized pre-fusion soluble version of the NiV-F glycoprotein (NiV-sFGCNt) (Nipah virus) (UniProt Q9IH63)
Assay: crystal structure

Substance: GCNt stabilized pre-fusion soluble version of the NiV-F glycoprotein (NiV-sFGCNt) (from UniProt Q9IH63 27-488) (domain or fragment)
- stoichiometry N: 3
